# Square brackets hold non-standard residues; d marks the D form. Ends that are not written are not given here. Michael acceptor = not defined here
# Experiments:
# [1] = molecular target: human cathepsin S wild-type, amino acids 17 to 331, C-terminal His-tag (CTSS-His) (human, UniProt P25774 115-331); assay: cell-based or functional assay
# [2] = molecular target: purified cathepsin B (CTSB), purchased from RndSystems (UniProt P07858 80-333); assay: cell-based or functional assay
# human cathepsin S wild-type, amino acids 17 to 331, C-terminal His-tag (CTSS-His), sequence (P25774 115-331 limits assumed, form in doubt): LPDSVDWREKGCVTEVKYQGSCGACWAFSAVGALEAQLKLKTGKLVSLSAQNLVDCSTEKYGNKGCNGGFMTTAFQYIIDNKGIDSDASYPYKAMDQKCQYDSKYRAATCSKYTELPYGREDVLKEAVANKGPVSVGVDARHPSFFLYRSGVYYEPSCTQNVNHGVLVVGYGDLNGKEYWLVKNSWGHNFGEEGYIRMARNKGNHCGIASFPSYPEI
Binder,"IC50, CTSS activity, FRET assay dose-response [1] [nM]","IC50, CTSB activity, FRET assay dose-response [2] [nM]"
"KHRM[Michael acceptor]VMW (not fully specified; reading uncertain) [Non-natural peptide inhibitor C10, KHRM(Y)VMW]",49.3,–
"KRRY[Michael acceptor]WMW (not fully specified; reading uncertain) [Non-natural peptide inhibitor D5, KRRY(Y)WMW]",86600,61.9

# Reference: US20240352070A1 (ECOLE POLYTECHNIQUE FEDERALE DE LAUSANNE EPFL, published 2024)
